As usually defined, the stoichiometry N is a count of units in the complex or per binding partner.

Results on one protein are retold here after article doi:10.1101/2024.08.05.606604, “The molecular basis of Human FN3K mediated phosphorylation of glycated substrate” (bioRxiv, 2024).

The series deals with the molecule itself. Briefly: crystal structure; HsFN3KΔ crystals, hanging drop vapor diffusion at 20 °C (0.5 M ammonium sulfate, 0.1 M tri-sodium citrate, 1 M lithium sulfate); space group P212121, two molecules in the asymmetric unit; apo and soaked with nucleotides and DMF.

B1: HsFN3KΔ (human fructosamine-3-kinase with an internal loop truncation: amino acid 117–138 replaced with a GSS linker) (enzyme)
chain: MEQLLRAELRTATLRAFGGPGAGCISEGRAYDTDAGPVFVKVNRRTQARQMFEGEVASLEALRSTGLVRVPRPMKVIDLPGGGAAFVMEHLKMKSLSSQASKLGEQMADLHLYNQKGSSYVDKFGFHTVTCCGFIPQVNEWQDDWPTFFARHRLQAQLDLIEKDYADREARELWSRLQVKIPDLFCGLEIVPALLHGDLWSGNVAEDDVGPIIYDPASFYGHSEFELAIALMFGGFPRSFFTAYHRKIPKAPGFDQRLLLYQLFNYLNHWNHFGREYRSPSLGTMRRLLK
notes: human fructosamine-3-kinase (FN3K), Gene ID 64122, residues before the truncated loop (up to residue 116); linker that replaces amino acids 117–138; human fructosamine-3-kinase (FN3K), Gene ID 64122, residues after the truncated loop (from residue 139); Construct used for all crystal structures; also called apo-HsFN3K; apo-HsFN3KΔ; source: E. coli Rosetta 2 (DE3), purified (Ni-NTA, SP-HP cation …)
On to B1, for which the “stoichiometry N” value worked out at 2.
